We go through nine molecules from patent publication US8436159B2, “Glyphosate resistant class I 5-endolpyruvylshikimate-3-phosphate synthase (EPSPS)” (Monsanto Technology LLC, priority 2003, dated 2013).

Data set [1] concerns the target T1, maize (Zea mays) class I EPSPS, wild type (WT), pMON70461, DNA SEQ ID NO:3 (Zea mays, UniProt O24566).
T1 construct: pMON70461
T1 sequence (O24566 with tags, fused parts or gaps): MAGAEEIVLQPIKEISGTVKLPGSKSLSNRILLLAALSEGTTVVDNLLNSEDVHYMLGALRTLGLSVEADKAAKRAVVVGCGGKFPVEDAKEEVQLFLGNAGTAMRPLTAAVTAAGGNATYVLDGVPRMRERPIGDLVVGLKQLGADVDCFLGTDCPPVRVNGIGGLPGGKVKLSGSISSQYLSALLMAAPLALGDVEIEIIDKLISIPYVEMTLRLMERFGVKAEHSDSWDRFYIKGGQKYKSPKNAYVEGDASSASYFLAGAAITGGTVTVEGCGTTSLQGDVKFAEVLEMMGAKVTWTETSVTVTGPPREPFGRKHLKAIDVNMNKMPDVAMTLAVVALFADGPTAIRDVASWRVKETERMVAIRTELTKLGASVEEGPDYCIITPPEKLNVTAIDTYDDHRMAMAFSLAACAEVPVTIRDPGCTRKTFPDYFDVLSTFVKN
The data set is described as follows: EPSPS steady-state kinetics, wild-type maize EPSPS. The class given is biochemical. Here is the method: The wild type and variant EPSPS coding sequences were cloned into a pET-19b base vector (Novagen, Madison, Wis.). The plant (maize) class I EPSPS variants so created were assigned pMON plasmid numbers (Table 2). The variant EPSPS proteins were purified from the E. coli host using the protocols outlined in the pET system manual, 9th edition (Novagen) or by the following method. A single colony or a few microliters from a glycerol stock was inoculated into 4 mL LB medium containing 0.1 mg/mL carbenicillin antibiotic. The culture was incubated with shaking at 37 C for 4 hours. The cultures were stored at 4° C. overnight. The following morning, 1 mL of the overnight culture was used to inoculate 100 mL of fresh LB medium containing 0.1 mg/mL carbenicillin. The cultures were incubated with shaking at 37 C for 4-5 hours, then the cultures were placed at 4° C. for 5-10 minutes. The cultures were then induced with IPTG (1 mM final concentration) and incubated with shaking at 30 C for 4 hours or 20° C. overnight. The cells were harvested by centrifugation at 7000 rpm for 20 minutes at 4° C. The supernatant was removed and the cells were frozen at −70° C. until further use. The proteins were extracted by resuspending the cell pellet in BugBuster reagent (Novagen) using 5 mL reagent per gram of cells. Benzonase (125 Units) was added to the resuspension and the cell suspension was then incubated on a rotating mixer for 20 minutes at room temperature. The cell debris was removed by centrifugation at 10,000 rpm for 20 minutes at room temperature. The supernatant was passed through a 0.45 μm syringe-end filter and transferred to a fresh tube. A pre-packed columns containing 1.25 mL of His-Bind resin was equilibrated with 10 mL of 5 mM imidazole, 0.5 M NaCl, 20 mM Tris-HCl pH 7.9 (1× Binding Buffer). The column was then loaded with the prepared cell extract. After the cell extract had drained, the column was then washed with 10 mL of 1× Binding Buffer, followed with 10 mL of 60 mM imidazole, 0.5 M NaCl, 20 mM Tris-HCl pH 7.9 (1× Wash Buffer). […]

A further data set relates to E. coli EPSPS, native. The note with it: read-out: apparent Km for PEP; native enzyme; cited from earlier work.
Data set [2] deals with E. coli EPSPS variant, alanine for the glycine at position 96 (G96A). The following applies: read-out: apparent Km for PEP; glyphosate-resistant isolate; cited from earlier work.
Substrate in data set [3]: C=C(OP(=O)(O)O)C(=O)O
The data set is described as follows: EPSPS steady-state kinetics, TIPA variant. The class given is biochemical, maize (Zea mays). The note with it: other: pH 7.0, 1 mM shikimate-3-phosphate, Table 2.

Substrate in data set [4]: C=C(OP(=O)(O)O)C(=O)O
The data set is described as follows: EPSPS steady-state kinetics, TIPT variant. Type of data set: biochemical, maize (Zea mays). The following applies: other: pH 7.0, 1 mM shikimate-3-phosphate.

Substrate in data set [5]: C=C(OP(=O)(O)O)C(=O)O
The data set is described as follows: purified protein, by the assay type. The following applies: other: pH 7.0, 1 mM shikimate-3-phosphate.

Substrate in data set [6]: C=C(OP(=O)(O)O)C(=O)O
The data set is described as follows: EPSPS steady-state kinetics, TIPV variant. Type of data set: biochemical, maize (Zea mays). The note with it: other: pH 7.0, 1 mM shikimate-3-phosphate.

Substrate in data set [7]: C=C(OP(=O)(O)O)C(=O)O
The data set is described as follows: EPSPS steady-state kinetics, TIPG variant. Type of data set: biochemical, maize (Zea mays). The following applies: other: pH 7.0, 1 mM shikimate-3-phosphate.

Substrate in data set [8]: C=C(OP(=O)(O)O)C(=O)O
Put plainly: EPSPS steady-state kinetics, TIPI variant. The note with it: other: pH 7.0, 1 mM shikimate-3-phosphate. Type of data set: biochemical, maize (Zea mays).

Substrate in data set [9]: C=C(OP(=O)(O)O)C(=O)O
The data set is described as follows: EPSPS steady-state kinetics, TIPS variant. The note with it: other: pH 7.0, 1 mM shikimate-3-phosphate. The class given is biochemical, maize (Zea mays).

Substrate in data set [10]: C=C(OP(=O)(O)O)C(=O)O
The data set is described as follows: EPSPS steady-state kinetics, TIPM variant. The class given is biochemical, maize (Zea mays). The note with it: other: pH 7.0, 1 mM shikimate-3-phosphate.

Positions count from the first letter of the chain named. Names may count otherwise.

One may read the kcat as the number of substrate molecules converted per active site and unit of time at saturation. What is called Km is the concentration of substrate that gives half-maximal velocity. Regarding `C=C(OP(=O)(O)O)C(=O)O` [PEP, phosphoenolpyruvate], the kcat in data set [1] (Table 5) came out at 8.8 ± 0.5 s⁻¹. Besides, the Michaelis constant (Km) in data set [1] (pH 7.0, 1 mM shikimate-3-phosphate, Table 2, read-out: Km-PEP) is 27 ± 4 µM; in the data set with E. coli EPSPS, native it was 10 µM; in [2], 220 µM.

B1: maize (Zea mays) class I EPSPS variant TIPA (T102I, P106A), pMON42481, ZmTIPA SEQ ID NO:39 (Zea mays; P106A/T102I) (protein)
chain: AGAEEIVLQPIKEISGTVKLPGSKSLSNRILLLAALSEGTTVVDNLLNSEDVHYMLGALRTLGLSVEADKAAKRAVVVGCGGKFPVEDAKEEVQLFLGNAGIAMRALTAAVTAAGGNATYVLDGVPRMRERPIGDLVVGLKQLGADVDCFLGTDCPPVRVNGIGGLPGGKVKLSGSISSQYLSALLMAAPLALGDVEIEIIDKLISIPYVEMTLRLMERFGVKAEHSDSWDRFYIKGGQKYKSPKNAYVEGDASSASYFLAGAAITGGTVTVEGCGTTSLQGDVKFAEVLEMMGAKVTWTETSVTVTGPPREPFGRKHLKAIDVNMNKMPDVAMTLAVVALFADGPTAIRDVASWRVKETERMVAIRTELTKLGASVEEGPDYCIITPPEKLNVTAIDTYDDHRMAMAFSLAACAEVPVTIRDPGCTRKTFPDYFDVLSTFVKN
notes: pMON42481
In the case of B1, in [3], the Km came to 10.2 ± 1.1 µM, the turnover number (kcat) turned out to be 2.1 ± 0.1 s⁻¹ and the kcat/Km was 0.2 µM^−1s^−1.

B2: maize (Zea mays) class I EPSPS variant TIPT (T102I, P106T), pMON58452, ZmTIPT SEQ ID NO:38 (Zea mays; P106T/T102I) (protein)
chain: B1 chain with A106T
notes: pMON58452
As for B2, the Km in data set [4] was 11.2 ± 1.8 µM.

B3: maize (Zea mays) class I EPSPS variant TIPC (T102I, P106C), pMON42485 (Zea mays; P106C/T102I) (protein)
chain: B1 chain with A106C
For B3, in [5], the Km is 47.0 ± 4.0 µM.

B4: maize (Zea mays) class I EPSPS variant TIPV (T102I, P106V), pMON42482 (Zea mays; P106V/T102I) (protein)
chain: B1 chain with A106V
notes: pMON42482
Turning to B4, the Michaelis-Menten constant (Km) in data set [6] was found to be 109.3 ± 12.9 µM.

B5: maize (Zea mays) class I EPSPS variant TIPG (T102I, P106G), pMON42480 (Zea mays; P106G/T102I) (protein)
chain: B1 chain with A106G
notes: pMON42480
With B5, in data set [7], the Km was 23.0 ± 3.7 µM.

B6: maize (Zea mays) class I EPSPS variant TIPI (T102I, P106I), pMON42486 (Zea mays; P106I/T102I) (protein)
chain: B1 chain with A106I
notes: pMON42486
Turning to B6, in [8], the Km is 60.3 ± 2.8 µM.

B7: maize (Zea mays) class I EPSPS variant TIPS (T102I, P106S), pMON70462 (Zea mays; P106S/T102I) (protein)
chain: B1 chain with A106S
notes: pMON70462
Consider B7, for which the Km in [9] turned out to be 10.6 ± 1.6 µM.

B8: maize (Zea mays) class I EPSPS variant TIPM (T102I, P106M), pMON42484 (Zea mays; P106M/T102I) (protein)
chain: B1 chain with A106M
notes: pMON42484
Consider B8, for which the Michaelis constant (Km) in data set [10] turned out to be 143.3 ± 12.6 µM.
